Assay results as given in US20110313028A1 (VIRGINIA COMMONWEALTH UNIVERSITY, published 2011).

Key:
ATF-2 = target: T1, ATF-2 (UniProt P15336 1-505, limits assumed); assay: similar assays (two-hybrid / co-immunoprecipitation; not specified)
T1 construct: Tested in 'similar assays'; The construct is not described
T1 sequence (looked up): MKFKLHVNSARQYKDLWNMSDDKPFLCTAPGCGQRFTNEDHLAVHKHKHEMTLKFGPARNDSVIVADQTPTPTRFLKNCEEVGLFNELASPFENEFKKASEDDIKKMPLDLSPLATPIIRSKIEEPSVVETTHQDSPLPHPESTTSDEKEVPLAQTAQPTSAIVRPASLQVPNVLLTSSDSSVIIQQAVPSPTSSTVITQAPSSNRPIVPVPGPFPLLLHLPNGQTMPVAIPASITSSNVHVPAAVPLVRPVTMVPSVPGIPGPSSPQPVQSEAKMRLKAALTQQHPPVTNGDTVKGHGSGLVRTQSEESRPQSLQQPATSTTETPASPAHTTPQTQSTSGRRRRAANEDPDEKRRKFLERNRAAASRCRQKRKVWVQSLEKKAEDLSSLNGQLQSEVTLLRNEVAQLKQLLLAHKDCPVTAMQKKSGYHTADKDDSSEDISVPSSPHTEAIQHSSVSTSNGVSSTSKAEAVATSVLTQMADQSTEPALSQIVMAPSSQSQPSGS

c-Fos = target: T2, c-Fos (UniProt P01100 1-380, limits assumed); assay: as above
T2 construct: Tested in 'similar assays'; The construct is not described
T2 sequence (P01100 whole entry): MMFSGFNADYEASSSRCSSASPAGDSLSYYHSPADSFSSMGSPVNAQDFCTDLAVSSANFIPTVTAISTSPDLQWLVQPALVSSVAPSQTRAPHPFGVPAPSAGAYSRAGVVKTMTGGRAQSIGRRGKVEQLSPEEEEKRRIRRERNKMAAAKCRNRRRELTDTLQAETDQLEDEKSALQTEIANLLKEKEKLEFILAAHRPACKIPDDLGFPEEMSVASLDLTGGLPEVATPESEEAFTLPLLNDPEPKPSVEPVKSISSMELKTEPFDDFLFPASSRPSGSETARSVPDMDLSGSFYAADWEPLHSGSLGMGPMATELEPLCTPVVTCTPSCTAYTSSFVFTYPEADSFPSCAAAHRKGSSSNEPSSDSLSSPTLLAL

B1: HA-tagged SARI (Suppressor of AP-1, Regulated by IFN), expressed in HeLa cells from Ad.SARI (other)
chain: MHLCGGNGLLTQTDPKEQQRQLKKQKNRAAAQRSRQKHTDKADALHQQHESLEKDNLALRKEIQSLQAELAWWSRTLHVHERLCPMDCASCSAPGLLGCWDQAEGLLGPGPQGQHGCREQLELFQTPGSCYPAQPLSPGPQPHDSPSLLQCPLPSLSLGPAVVAEPPVQLSPSPLLFASHTGSSLQGSSSKLSALQPSLTAQTAPPQPLELEHPTRGKLGSSPDNPSSALGLARLQSREHKPALSAATWQGLVVDPSPHPLLAFPLLSSAQVHF
notes: also called SARI protein; WT SARI; not shown: HA tag
binding result (ATF-2): no binding
binding result (c-Fos): no binding
